Data from the DeepSol protein solubility set.

Assay: soluble on expression in E. coli; label from the status in PepcDB or PDB records

Row | Sequence | soluble on expression in E. coli
1 | MEEPEEPADSGQSLVPVYIYSPEYVSMCDSLAKIPKRASMVHSLIEAYALHKQMRIVKPKVASMEEMATFHTDAYLQHLQKVSQEGDDDHPDSIEYGLGYDCPATEGIFDYAAAIGGATITAAQCLIDGMCKVAINWSGGWHHAKKDEASGFCYLNDAVLGILRLRRKFERILYVDLDLHHGDGVEDAFSFTSKVMTVSLHKFSPGFFPGTGDVSDVGLGKGRYYSVNVPIQDGIQDEKYYQICESVLKEVYQAFNPKAVVLQLGADTIAGDPMCSFNMTPVGIGKCLKYILQWQLATLILGGGGYNLANTARCWTYLTGVILGKTLSSEIPDHEFFTAYGPDYVLEITPSCRPDRNEPHRIQQILNYIKGNLKHVVIEGRGSHHHHHH | soluble
2 | MALAVRKQLLYELIDRLDETDHQTAYDFLMYLLDRSRKERMVWERIDETDEEEALTEEERQQLQSDEGYITGGEAKREFGLQVDLP | not soluble
3 | MGSDKIHHHHHHMKEVKDFYDKWEPEDFPNYIKLLMNFADELIFEEISLLLKKFENKKDFLVLDCGCGFGAFYNLTKDFNTIYLDISLNLLKRFKLKERKICANILHLPFKDNTFDLVLCINVLEHVNYLKALNEIRRILKNKGKLIVVVVNKDSLIKEEIFNDFKIFHKPLSIKDFEIDGFKIVYSNSVYFLPSIFKISPPIILSKIIEYWKPVDKKLSKIFKNKGQFLIIEMVKE | not soluble
4 | MVRYWIYLLSDDVASHYRHRAEKIVELLREHQYAKAPLKAICRKQVEFITERLSFSRLELGLKQYFAGRVGKNLERNMFVLQNDAGEEALLVVQKRRLLLVADSAPLASDIGRALARLSPTFLAVDADFVDYYWLSAPRQGRKFA | not soluble
5 | MERVPLLPRRFSARPQGNQEAQERTAVKCEQVRYAIQEVIGRGAFGEVSSAEVVGTRDLVAIKRVIHDGRLRQRELTLMRDHLGPNTQQGGVSSLDVGNGVGAHATSVTGSNGEEANGTTAIDGLESWNMPTIVPYHPCVVKLLDHFFASDPSGVQYLFMVMDYIPLDVRRLHHMFLRQREQQMPIILVKVIMFQLARALAFLHARGICHRDVKPNNILVDQETGVVKLCDFGSAKKMQAVGGEGPREKNVPYIFSRYYRAPELLLGSQYYHFHVDMWAFGCVLAELLCGKVLFKGSSSTMDQLVEIIKVLGKPSERELFALNPQSAGSALIRTWGDSHNASQLSPTPSGPLPSSNSANADYMQRRSAPRVKSLLWVEVLPPNTSQAALSLIEQLLRYTPEERLTSAEVLEHVFFDELFSDDARLPNGAPLPASMFQVTREEAEILPPWLLERMAAAEGVAKG | soluble
6 | MQQLKAKSLEMRTPQATKTAVLVIGGAEDKVHGREILRTFVARAGASKAYITIIPSASREPAIIGGRYIRIFEEMGAEKVEILDIREREQCDSSQIKASLEACTGVFLTGGDQLRLCGVLSDTAAMDIIRQRVRAGQLTLAGTSAGAAVMGHHMIAGGGSGETPNRSLVDMATGLGFIPEVIVDQHFHNRNRMGRLVSAIAAHPDRLGIGIDEDTCAVFERDGWLQVMGKGSVTIVDPTELTHTNEPLVSANEPLTVHNLRLHILSYGDRFHLYQRTVLPAVHRISS | soluble
7 | MAPLNYKTITSRSILSKVLVRATQQWPTDKTLNKQLSELYGAYVNSFVSKFKDKHVITISLEVVNEKFLKDKTPLFEKGLDTLKEIIWNPLIKDRCFDHTYVAQEKSLLSKKLEAMEDNKAQYSFLQLMNYMFKQEPYRYIATGQLEQIPQVTSESLYDTYLSMVQNDDCAIYVVGNINKEEVTQLILDKFAIKPFYLENKESTEITPSFDQPQYIIEKDDVDQAKLNLGYRFPSYYGKSNYYAFIVLNMMFGGDPSSVLFNEVREKQSLAYSIHSQIDGKNGFLFVLSGVSAEKYEQAKDTVIKEFDKIKNGDFDSNKIELAKKIIISHRHEASDRPKSIIEILHNQLLLNRQQTDQDFINAVNQVTKKDVIKLANEAVLDTIYVLTKGDQH | not soluble
8 | MKNNVKNWTTKEVKQSLDKFNNILIKNTFLLQYLKKEFSASSAYCLSMLPEEEDIYEILVNGNIIIDLEFNKHTNETVVINVTDVDEYLKTLTNESGRVFFTLAKEIGKQKNI | not soluble
9 | MALQNISQNDFALHVQKAEQKSFMQTLEMAKLLSKRGFTLNYIAWLENGTIEISAILYSMPMTGGRYFEINCGPVVTRDKHLTDFYRELKDYVKEKGALELVIKPYDTYQTFDGDGQATSAEKKELISQLTNLGYHFDGLQRDYPNGEPDWHYVKDLSDISEQTLLKSFSKKGRPLVKKAKTFGTKLRRLNRDELNLFKEITSATSDRREYSDKSLDYYQDFYDSFGNNAEFMIASLNFENYLSHLQRDQNKLGNKIAKLQADLEKNPHSEKKQNQLRELSSQFDTFTTRQEEAQKFITKYGKKDVILAGSLFVYTPQEAVYLFSGSYPEFNKFYAPALLQEHVMLEALKRGISFYNLLGITGHFDNSDGVLRFKQNFNGYIVRKMGTFHYYPNPLKYRLLNTIKKILRR | not soluble
10 | MGSDKIHHHHHHMRIEVKLLPLKDNPILPFNYNYEVYSQILEKVNSIEPTIAKLLSSPHGFWTFSRIIVRKRKILPDKGIEILSDDVSLYISSSNEDIIRAIAEAVEKSPEFKIGELSFLVGDIKAIKVKELGKENVFSTLSPIVVRTVKFEGNKLRHWDLYPHDELFMDRLRKVMILRYSEVMGETPKDRDFTIEVLKFKPTRLMVGSSYIRGSLMVFRYAGSEEIARFGYENGFGEKTGLGFGMVKLIE | not soluble
11 | MSVPGPSSPDGALTRPPYCLEAGEPTPGLSDTSPDEGLIEDLTIEDKAVEQLAEGLLSHYLPDLQRSKQALQELTQNQVVLLDTLEQEISKFKECHSMLDINALFAEAKHYHAKLVNIRKEMLMLHEKTSKLKKRALKLQQKRQKEELEREQQREKEFEREKQLTARPAKRM | soluble
12 | NEVRFVVFHAVDTSEKQILVRSLEEAENKFAKLTQLLPDGLLLIEDDTIISANPASARLLGLNSPHELLGEELSRLFIDENTKKVFSHRLSTLISDKPFVCLTSARCGFERKVQLHADSTAILGSESQIILIQDA | not soluble
13 | NYASHTERQILEVSPVVADEALAQALECKPGTTWLRVRMLRVEKDAAHTPLCWNDAYMLPDVGQRIVGKIPNGSGLLCRIIENEAGIAVADIKQSIGATAIEGEMASRLGVAPGTPGLEITRLYVDRANTPFLITVNTYSAHKFR | not soluble
14 | SLESYLRLSEVDKQILHSHALMLDGLGNFFGSTHEVILHSLENLESSAIKVINGHFSNRKEGAPITDMALKMLSQVESEHDYAVKPYYNKNQKGVILKSSTIPVIGENDRIIGLICINMHLEMPLIDYLQDLLPSGQQNDMSQELKNSEHFSDNIDELITTSLTKVKQAVESDPNVSHLNQNKEIVIRLYDQGIFNLKDSVIKIADRLGISKNTIYLHIRNHKKEEA | soluble
15 | MRELRIESVHTNPYTLTLRMNGVTLNDKDDRQLLGWGNLLVNLEWSSIIDQTWTFEAIRIDKLMIQEERFVSGETRFSRLAAESSGPEAGKEKAEKEESAEMPALRIRDFKLENGILRFADNLKDVTAADDAEPKQVSLALQNIGLSVKDFTLQNDASFPLRLNGQLTKGGKLAFDGTFQLLPSPALEGNAEINELAFKQAAPYLQQFMNVQLENGTLTLNGQMSTNAQQPFAFKGSASINTLNIKEASNDETLLGWDSLQTGQFDLNIASKEIETAPIVVKGLSARVVINQDKTTNFGQLVVDTPADTKGDTNKSEETQPFGITIEGVELSDGDVQFADKSLPLPFSTSIHTLSGEVSTLSSDSSEPARVKFEGEVAEYGLAQVNGTVHAWHPTRQTTINVRFRNLQIPEYSPYTVNFAGRKIADGTMDLDLDYTVNEEKLDGQNNLVLHDLKLGEKMESSDAMDLPLDLAIALLQDSDGVIDLNLPVSGDVGNPQFDFGKVIQQAVGDAIKSVVTAPFSFLANLVGADSEEMGKVEFPEGRTHLLPPQRERIAKLREALNKRPALALELAGPFNQAFDAPALKEDKAMKVLQQRLAEEGSEVEEPSLTSESSQDAMEAIFSSHYPDTELEALKDRFTEKPSEASNEEKFDALAYRNHLAEKVIAAQSITNEELKAIANARAETVRDALVNNSESGISADRVRIREPQEVDSVEGERIAMELAVTTDLEHHHHHH | not soluble
